{"source": "paper PMC5464773", "about": "(2017)"}
{"target": "T1, Myc-tagged Bfl-1 (human, UniProt Q16548 1-175)", "T1 chain": "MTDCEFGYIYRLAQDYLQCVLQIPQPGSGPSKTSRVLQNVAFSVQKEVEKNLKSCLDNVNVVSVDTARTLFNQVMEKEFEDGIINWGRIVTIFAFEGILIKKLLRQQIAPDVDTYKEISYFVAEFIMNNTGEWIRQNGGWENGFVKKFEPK", "assay": "FP", "units": {"Ki": "nM"}}
{"binder": "Ac-QWIREIAAGLRRFADILNAQVER-NH2 (designed binder)", "note": "[FS3]", "Ki": 2.1}
{"binder": "Ac-QWVREIAAGLRRAADDVNAQVER-NH2 (designed binder)", "note": "[FS2]", "Ki": 21}
{"binder": "Ac-QWAREIGAQLRRMADDLNAQYER-NH2", "note": "[PUMA BH3 peptide (23 residues)]", "Ki": 4.8}
{"target": "T2, Myc-tagged Mcl-1 (human, UniProt Q07820 1-350)", "T2 chain": "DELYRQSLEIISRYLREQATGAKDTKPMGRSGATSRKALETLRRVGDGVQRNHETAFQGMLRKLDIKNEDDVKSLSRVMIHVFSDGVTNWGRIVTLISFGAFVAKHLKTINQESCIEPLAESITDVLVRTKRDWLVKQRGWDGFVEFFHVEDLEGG", "assay": "FP", "units": {"Ki": "nM"}}
{"binder": "Ac-QWIREIAAGLRRFADILNAQVER-NH2 (designed binder)", "note": "[FS3]", "Ki": 550}
{"binder": "Ac-QWVREIAAGLRRAADDVNAQVER-NH2 (designed binder)", "note": "[FS2]", "Ki": 3200}
{"binder": "Ac-QWVREIAAGLRLAADNVNAQLER-NH2 (designed binder)", "note": "[FS1]", "Ki": "> 5000"}
{"binder": "Ac-QWAREIGAQLRRMADDLNAQYER-NH2", "note": "[PUMA BH3 peptide (23 residues)]", "Ki": 2.4}
{"target": "Myc-tagged Bcl-2 (human, UniProt P10415 1-239)", "sequence (P10415 1-211)": "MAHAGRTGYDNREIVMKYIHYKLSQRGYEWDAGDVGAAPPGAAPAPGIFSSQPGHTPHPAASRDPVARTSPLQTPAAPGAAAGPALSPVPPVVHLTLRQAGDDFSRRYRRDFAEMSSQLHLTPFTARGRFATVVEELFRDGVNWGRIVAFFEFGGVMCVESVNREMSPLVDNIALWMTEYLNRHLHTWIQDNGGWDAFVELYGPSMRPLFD", "assay": "FP", "units": {"Ki": "nM"}}
{"binder": "Ac-QWIREIAAGLRRFADILNAQVER-NH2 (designed binder)", "note": "[FS3]", "Ki": 2000}
{"binder": "Ac-QWVREIAAGLRRAADDVNAQVER-NH2 (designed binder)", "note": "[FS2]", "Ki": 2400}
{"binder": "Ac-QWVREIAAGLRLAADNVNAQLER-NH2 (designed binder)", "note": "[FS1]", "Ki": "> 5000"}
{"target": "Myc-tagged Bcl-xL (human, UniProt Q07817-1 1-233)", "sequence (Q07817 1-209)": "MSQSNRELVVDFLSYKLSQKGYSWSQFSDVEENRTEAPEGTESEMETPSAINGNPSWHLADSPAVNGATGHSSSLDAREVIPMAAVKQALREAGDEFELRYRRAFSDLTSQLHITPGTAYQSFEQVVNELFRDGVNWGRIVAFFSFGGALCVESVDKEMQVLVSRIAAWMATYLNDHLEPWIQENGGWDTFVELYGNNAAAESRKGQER", "assay": "FP", "units": {"Ki": "nM"}}
{"binder": "Ac-QWIREIAAGLRRFADILNAQVER-NH2 (designed binder)", "note": "[FS3]", "Ki": 320}
{"binder": "Ac-QWVREIAAGLRRAADDVNAQVER-NH2 (designed binder)", "note": "[FS2]", "Ki": "> 5000"}
{"binder": "Ac-QWVREIAAGLRLAADNVNAQLER-NH2 (designed binder)", "note": "[FS1]", "Ki": 2400}
{"target": "T3, Myc-tagged Bcl-w (human, UniProt Q92843 1-193)", "T3 chain": "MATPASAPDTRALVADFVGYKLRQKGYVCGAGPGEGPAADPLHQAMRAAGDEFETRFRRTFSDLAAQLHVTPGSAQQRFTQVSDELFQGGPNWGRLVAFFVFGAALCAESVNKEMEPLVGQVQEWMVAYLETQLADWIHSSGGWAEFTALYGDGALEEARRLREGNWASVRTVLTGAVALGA", "assay": "FP", "units": {"Ki": "nM"}}
{"binder": "Ac-QWIREIAAGLRRFADILNAQVER-NH2 (designed binder)", "note": "[FS3]", "Ki": 770}
{"binder": "Ac-QWVREIAAGLRRAADDVNAQVER-NH2 (designed binder)", "note": "[FS2]", "Ki": "> 5000"}
{"binder": "Ac-QWVREIAAGLRLAADNVNAQLER-NH2 (designed binder)", "note": "[FS1]", "Ki": "> 5000"}
{"binder": "Ac-QWAREIGAQLRRMADDLNAQYER-NH2", "note": "[PUMA BH3 peptide (23 residues)]", "Ki": 3}
{"target": "T1, Myc-tagged Bfl-1", "assay": "FP", "remark": "another data set of the same source", "units": {"Ki": "nM"}}
{"binder": "Ac-QWAREIGAGLRRAADDVNAQVER-NH2", "note": "[PUMA/FS2 chimeric peptide with the smaller residues of FS2 at positions 2g, 3d, 4a and 4e]", "Ki": 600}
{"binder": "Ac-QWVREIAAQLRRMADDLNAQYER-NH2", "note": "[PUMA/FS2 chimeric peptide with the larger residues of FS2 at positions 2a and 2e]", "Ki": 2.1}
